Conditions: Podospora anserina; pH 7.5; 25 °C; GdnHCl; optical density; whole UniProt chain shown

B1: Heterokaryon incompatibility protein s wild type, Q03689 (protein)
chain: MSEPFGIVAGALNVAGLFNNCVDCFEYVQLGRPFGRDYERCQLRLDIAKARLSRWGEAVKINDDPRFHSDAPTDKSVQLAKSIVEEILLLFESAQKTSKRYELVADQQDLVVFEDKDMKPIGRALHRRLNDLVSRRQKQTSLAKKTAWALYDGKSLEKIVDQVARFVDELEKAFPIEAVCHKLAEIEIEEVEDEASLTILKDAAGGIDAAMSDAAAQKIDAIVGRNSAKDIRTEERARVQLGNVVTAAALHGGIRISDQTTNSVETVVGKGESRVLIGNEYGGKGFWDN
B1 gave an unfolding free energy of 2.9 kcal/mol.

Reference: FireProtDB (doi:10.1371/journal.ppat.1004158)
